Residue numbers refer to the chain shown, from its start. Numbers in names are those of the source.
Key:
A340 spectrophotometry [1] = substrate: NC(=O)c1ccc[n+]([C@@H]2O[C@H](COP(=O)(O)OP(=O)(O)OC[C@H]3O[C@@H](n4cnc5c(N)ncnc54)[C@H](OP(=O)(O)O)[C@@H]3O)[C@@H](O)[C@H]2O)c1; test: A340 spectrophotometry; format: biochemical, Thermus thermophilus; settings: 2 mM isocitrate, 5 mM MgCl2, 100 mM KCl, 50 mM Tris-HCl pH 7.5, 60 °C
Source text: (§1) A340 spectrophotometry on ttIDH (isocitrate dehydrogenase)

A340 spectrophotometry [2] = substrate: O=C(O)C[C@H](C(=O)O)[C@@H](O)C(=O)O; test: A340 spectrophotometry; format: biochemical, Thermus thermophilus; settings: 4 mM NADP+, 5 mM MgCl2, 100 mM KCl, 50 mM Tris-HCl pH 7.5, 60 °C
Source text: as §1

[3] = substrate: Nc1ncnc2c1ncn2[C@@H]1O[C@H](COP(=O)(O)O)[C@@H](O)[C@H]1O; test: pyruvate kinase/lactate dehydrogenase coupled assay, A340; format: biochemical, Thermus thermophilus; settings: 1 mM ATP, 5 mM MgCl2, 100 mM KCl, 50 mM Tris-HCl pH 7.5, 25 °C
Source text: pyruvate kinase/lactate dehydrogenase coupled assay, A340 on ttAMPK (AMP kinase)

A340 spectrophotometry [4] = substrate: NC(=O)C1=CN([C@@H]2O[C@H](COP(=O)(O)OP(=O)(O)OC[C@H]3O[C@@H](n4cnc5c(N)ncnc54)[C@H](O)[C@@H]3O)[C@@H](O)[C@H]2O)C=CC1; test: A340 spectrophotometry; format: biochemical, Thermus thermophilus; settings: 25 μM oxaloacetate, 5 mM MgCl2, 100 mM KCl, 50 mM Tris-HCl pH 7.5, 30 °C
Source text: A340 spectrophotometry on ttMDH (malate dehydrogenase)

purified protein [5] = substrate: O=C(O)CC(=O)C(=O)O; test: purified protein; settings: 0.15 mM NADH, 5 mM MgCl2, 100 mM KCl, 50 mM Tris-HCl pH 7.5, 30 °C, 30.0 °C
[6] = substrate: Nc1ncnc2c1ncn2[C@@H]1O[C@H](COP(=O)(O)OP(=O)(O)OP(=O)(O)O)[C@@H](O)[C@H]1O; test: pyruvate kinase/lactate dehydrogenase coupled assay, A340; format: biochemical, Thermus thermophilus; settings: 1 mM CMP, 25 °C, pH 7.5, 5 mM MgCl2
Source text: (§2) pyruvate kinase/lactate dehydrogenase coupled assay, A340 on ttCMPK (CMP kinase)

[7] = substrate: Nc1ccn([C@@H]2O[C@H](COP(=O)(O)O)[C@@H](O)[C@H]2O)c(=O)n1; test: as above; format: biochemical, Thermus thermophilus; settings: 1 mM ATP, 25 °C, pH 7.5, 5 mM MgCl2
Source text: as §2

[8] = substrate: O=P(O)(O)OP(=O)(O)O; test: phosphate release, BIOMOL Green, A650; format: biochemical, Thermus thermophilus; settings: 2 mM MgCl2, 100 mM KCl, 50 mM Tris-HCl pH 7.5, 60 °C
Source text: phosphate release, BIOMOL Green, A650 on ttPPase (inorganic pyrophosphatase)

[9] = substrate: Nc1ncnc2c1ncn2[C@@H]1O[C@H](COP(=O)(O)OP(=O)(O)OP(=O)(O)O)[C@@H](O)[C@H]1O; test: pyruvate kinase/lactate dehydrogenase coupled assay, A340; format: biochemical, Thermus thermophilus; settings: excess UMP (methods print 1 mM CMP), 25 °C, pH 7.5, 5 mM MgCl2
purified protein [10] = substrate: O=c1ccn([C@@H]2O[C@H](COP(=O)(O)O)[C@@H](O)[C@H]2O)c(=O)[nH]1; test: purified protein; settings: 1 mM ATP, 25 °C, pH 7.5, 5 mM MgCl2, 25.0 °C

B1: ttIDH (isocitrate dehydrogenase) (Thermus thermophilus HB8) (protein)
chain: PLITTETGKKMHVLEDGRKLITVIPGDGIGPECVEATLKVLEAAKAPLAYEVREAGASVFRRGIASGVPQETIESIRKTRVVLKGPLETPVGYGEKSANVTLRKLFETYANVRPVREFPNVPTPYAGRGIDLVVVRENVEDLYAGIEHMQTPSVAQTLKLISWKGSEKIVRFAFELARAEGRKKVHCATKSNIMKLAEGTLKRAFEQVAQEYPDIEAVHIIVDNAAHQLVKRPEQFEVIVTTNMNGDILSDLTSGLIGGLGFAPSANIGNEVAIFEAVHGSAPKYAGKNVINPTAVLLSAVMMLRYLEEFATADLIENALLYTLEEGRVLTGDVVGYDRGAKTTEYTEAIIQNLGKTPRKTQVRGYKPFRLPQVDGAIAPIVPRSRRVVGVDVFVETNLLPEALGKALEDLAAGTPFRLKMISNRGTQVYPPTGGLTDLVDHYRCRFLYTGEGEAKDPEILDLVSRVASRFRWMHLEKLQEFDGEPGFTKAQGED
notes: recombinant in E. coli C41(DE3)pRARE2, pET-11a, no tag mentioned
B1 showed a Km (A340 spectrophotometry [1]) of 39 ± 1 µM, a kcat (A340 spectrophotometry [1]) of 30 ± 2 s⁻¹ and a Km (A340 spectrophotometry [2]) of 34 ± 2 µM. It also gave a kcat (A340 spectrophotometry [2]) of 26 ± 1 s⁻¹.

B2: ttIDH (isocitrate dehydrogenase) (Thermus thermophilus HB8; S98E) (protein)
chain: B1 chain with S97E
notes: as for B1
With B2 the Km (A340 spectrophotometry [1]) was 144 ± 21 µM, the kcat (A340 spectrophotometry [1]) was 0.12 ± 0 s⁻¹ and the Km (A340 spectrophotometry [2]) was 178 ± 28 µM. The kcat (A340 spectrophotometry [2]) was 0.19 ± 0.02 s⁻¹.

B3: ttAMPK (AMP kinase) (Thermus thermophilus HB8) (protein)
chain: MDVGQAVIFLGPPGAGKGTQASRLAQELGFKKLSTGDILRDHVARGTPLGERVRPIMERGDLVPDDLILELIREELAERVIFDGFPRTLAQAEALDRLLSETGTRLLGVVLVEVPEEELVRRILRRAELEGRSDDNEETVRRRLEVYREKTEPLVGYYEARGVLKRVDGLGTPDEVYARIRAALGI
notes: recombinant in E. coli Rosetta2(DE3), pET-3a, no tag mentioned; monomer
B3 was tested, and the Km [3] was 23 ± 1 µM and the kcat [3] was 111 ± 3 s⁻¹.

B4: ttAMPK (AMP kinase) (Thermus thermophilus HB8; S34E) (protein)
chain: B3 chain with S34E
notes: as for B3
Work on B4 yielded a Km [3] of 153 ± 1 µM and a kcat [3] of 3.7 s⁻¹.

B5: ttAMPK (AMP kinase) (Thermus thermophilus HB8; S34A) (protein)
chain: B3 chain with S34A
notes: as for B3
For B5, the Km [3] was 71 ± 2 µM and the kcat [3] was 142 ± 4 s⁻¹.

B6: ttMDH (malate dehydrogenase) (Thermus thermophilus HB8) (protein)
chain: MKAPVRVAVTGAAGQIGYSLLFRIAAGEMLGKDQPVILQLLEIPQAMKALEGVVMELEDCAFPLLAGLEATDDPKVAFKDADYALLVGAAPRKAGMERRDLLQVNGKIFTEQGRALAEVAKKDVKVLVVGNPANTNALIAYKNAPGLNPRNFTAMTRLDHNRAKAQLAKKTGTGVDRIRRMTVWGNHSSTMFPDLFHAEVDGRPALELVDMEWYEKVFIPTVAQRGAAIIQARGASSAASAANAAIEHIRDWALGTPEGDWVSMAVPSQGEYGIPEGIVYSFPVTAKDGAYRVVEGLEINEFARKRMEITAQELLDEMEQVKALGLI
notes: as for B1
Protein B6 has a Km (A340 spectrophotometry [4]) of 2.7 ± 0.9 µM, a kcat (A340 spectrophotometry [4]) of 126 ± 14 s⁻¹ and a Km (purified protein [5]) of 8.6 ± 0.4 µM. It also gave a kcat (purified protein [5]) of 203 ± 5 s⁻¹.

B7: ttMDH (malate dehydrogenase) (Thermus thermophilus HB8; S236A) (protein)
chain: B6 chain with S236A
notes: as for B1
With B7 the Km (A340 spectrophotometry [4]) was 7.6 ± 0.2 µM, the kcat (A340 spectrophotometry [4]) was 468 ± 15 s⁻¹ and the Km (purified protein [5]) was 52 ± 2 µM. The kcat (purified protein [5]) was 622 ± 8 s⁻¹.

B8: ttCMPK (CMP kinase) (Thermus thermophilus HB8; S11E) (protein)
chain: MRGIVTIDGPEASGKSSVARRVAAALGVPYLSSGLLYRAAAFLALRAGVDPGDEEGLLALLEGLGVRLLAQAEGNRVLADGEDLTSFLHTPEVDRVVSAVARLPGVRAWVNRRLKEVPPPFVAEGRDMGTAVFPEAAHKFYLTASPEVRAWRRARERPQAYEEVLRDLLRRDERDKAQSAPAPDALVLDTGGMTLDEVVAWVLAHIRR
notes: recombinant in E. coli C41(DE3)pRARE2, pET-11a, no tag mentioned; monomer
B8 was tested, and the Km [6] was 60 ± 14 µM and the kcat [6] was 0.05 ± 0.01 s⁻¹.

B9: ttCMPK (CMP kinase) (Thermus thermophilus HB8) (protein)
chain: B8 chain with E11S
notes: as for B8
B9 gave a Km [7] of 61 ± 19 µM, a kcat [7] of 54 ± 16 s⁻¹ and a Km [6] of 53 ± 1 µM. It also gave a kcat [6] of 40 ± 1 s⁻¹.

B10: ttCMPK (CMP kinase) (Thermus thermophilus HB8; S11A) (protein)
chain: B8 chain with E11A
notes: as for B8
For B10, the Km [7] was 53 ± 3 µM and the kcat [7] was 57 ± 8 s⁻¹.

B11: ttPPase (inorganic pyrophosphatase) (Thermus thermophilus HB8) (protein)
chain: ANLKSLPVGDKAPEVVHMVIEVPRGSGNKYEYDPDLGAIKLDRVLPGAQFYPGDYGFIPSTLAEDGDPLDGLVLSTYPLLPGVVVEVRVVGLLLMEDEKGGDAKVIGVVAEDQRLDHIQDIGDVPEGVKQEIQHFFETYKALEAKKGKWVKVTGWRDRKAALEEVRACIARYKG
notes: as for B1
B11 gave a Km [8] of 17 ± 2 µM and a kcat [8] of 62 ± 11 s⁻¹.

B12: ttPPase (inorganic pyrophosphatase) (Thermus thermophilus HB8; Y140F) (protein)
chain: B11 chain with Y139F
notes: as for B1
Work on B12 yielded a Km [8] of 53 ± 0 µM and a kcat [8] of 19 ± 3 s⁻¹.

B13: ttUMPK (UMP kinase) (Thermus thermophilus HB8) (protein)
chain: MKYKRVLLKLSGEFLTRNGFGIEPEATQALAREIKAAYDTGVQLAIVIGAGNLWRGARQGVGMDRATADYIGMLATIMNALALQDALESLGVPTRVQTALTITQVAEPYIRRRALRHLEKERIVIFGGGTGNPFFSTDTAAALRALEVGAEVVLMAKNKVDGVYSDDPRKNPEAVRFDELTYLEVLNRGLQVMDTTAITLCMEAGLPIVVFDIFKPGALVGIIQGEKVGTLIH
notes: recombinant in E. coli C41(DE3)pRARE2, pET-11a, no tag mentioned; hexamer (prokaryotic UMP kinases)
B13 was tested, and the Km [9] was 214 ± 7 µM, the kcat [9] was 14 ± 0 s⁻¹ and the Km (purified protein [10]) was 74 ± 10 µM. For the same protein, the kcat (purified protein [10]) was 21 ± 1 s⁻¹.

B14: ttUMPK (UMP kinase) (Thermus thermophilus HB8; S11A) (protein)
chain: B13 chain with S11A
notes: as for B13
For B14, the Km [9] was 732 ± 206 µM and the kcat [9] was 0.04 ± 0.02 s⁻¹.

Source: PMC12667214, “Phosphomimetic mutations near active sites of proteins in Thermus thermophilus suggest a widespread regulatory mechanism” (FEBS Open Bio, 2025)
